Source: article doi:10.1101/2020.11.17.387225

Experiments:
[1] = molecular target: EccB5 (Mycobacterium xenopi); experiment: cryo-EM structure
[2] = molecular target: EccD5 (Mycobacterium xenopi); experiment: cryo-EM structure

Substance	stoichiometry N [1]	stoichiometry N [2]
EccB5 (natural protein)	6	–
EccD5 (natural protein)	–	2
